Laboratory results as given in patent US7892771B2, “Crystal structure of soluble glutaminyl cyclase” (Academia Sinica, priority 2006, dated 2011).
Changes are numbered by the printed parent chain. Names and notes keep the numbering of the source.

B1: R54W: site-directed mutant R54W of human QC (protein)
chain: MAGGRHRRVVGTLHLLLLVAALPWASRGVSPSASAWPEEKNYHQPAILNSSALWQIAEGTSISEMWQNDLQPLLIERYPGSPGSYAARQHIMQRIQRLQADWVLEIDTFLSQTPYGYRSFSNIISTLNPTAKRHLVLACHYDSKYFSHWNNRVFVGATDSAVPCAMMLELARALDKKLLSLKTVSDSKPDLSLQLIFFDGEEAFLHWSPQDSLYGSRHLAAKMASTPHPPGARGTSQLHGMDLLVLLDLIGAPNPTFPNFFPNSARWFERLQAIEHELHELGLLKDHSLEGRYFQNYSYGGVIQDDHIPFLRRGVPVLHLIPSPFPEVWHTMDDNEENLDESTIDNLNKILQVFVLEYLHL
B2: K144A: site-directed mutant K144A of human QC (protein)
chain: B1 chain with W54R, K144A
B3: F146A: site-directed mutant F146A of human QC (protein)
chain: B1 chain with W54R, F146A
B4: F325A: site-directed mutant F325A of human QC (protein)
chain: B1 chain with W54R, F325A
B5: W207L: site-directed mutant W207L of human QC (protein)
chain: B1 chain with W54R, W207L
B6: Q304L: site-directed mutant Q304L of human QC (protein)
chain: B1 chain with W54R, Q304L
B7: W207F: site-directed mutant W207F of human QC (protein)
chain: B1 chain with W54R, W207F
B8: E201D: site-directed mutant E201D of human QC (protein)
chain: B1 chain with W54R, E201D
B9: W329A: site-directed mutant W329A of human QC (protein)
chain: B1 chain with W54R, W329A

System: human QC
Experiment: Kinetic parameters of wild-type and mutant human QC
Format: biochemical
Details: pH 8.0

Compared with B1, B2 is 1.9-fold higher in Km: 760 ± 40 µM for the first, 1470 ± 20 µM for the second.

Going from B3 to B4, the Km rises from 820 ± 160 µM to 4670 ± 240 µM (5.7-fold).

First: B5
Second: B6
The Km of the first is 1.5-fold higher: 1770 ± 70 µM for the first, 1160 ± 90 µM for the second.

Compared with B7, B8 is 21-fold higher in Km: 590 ± 50 µM for the first, 12600 ± 2980 µM for the second.

In the case of B9, the Km is reported as 29500 ± 2290 µM.

First: B1
Second: B2
The kcat of the first is 1.6-fold lower: 7.35 ± 0.26 s⁻¹ for the first, 11.67 ± 0.34 s⁻¹ for the second.

First: B3
Second: B4
The kcat of the first is 1.6-fold lower: 7.91 ± 2.14 s⁻¹ for the first, 12.91 ± 0.06 s⁻¹ for the second.

Compared with B5, B6 is 22-fold higher in kcat: 0.43 ± 0.01 s⁻¹ for the first, 9.39 ± 1.18 s⁻¹ for the second.

Compared with B7, B8 is 2.7-fold lower in kcat: 2.32 ± 0.07 s⁻¹ for the first, 0.87 ± 0.28 s⁻¹ for the second.

B9 showed a kcat of 1.35 ± 0.07 s⁻¹.
